For series [1], the target named is MSL2-ΔPro/Bas (Drosophila melanogaster) (UniProt P50534). The series can be described thus: EMSA. (A gel shift assay detects complexes by their altered migration in electrophoresis.)
The target in series [2] is T1, MSL2 (Drosophila melanogaster, UniProt P50534 1-773).
T1 sequence: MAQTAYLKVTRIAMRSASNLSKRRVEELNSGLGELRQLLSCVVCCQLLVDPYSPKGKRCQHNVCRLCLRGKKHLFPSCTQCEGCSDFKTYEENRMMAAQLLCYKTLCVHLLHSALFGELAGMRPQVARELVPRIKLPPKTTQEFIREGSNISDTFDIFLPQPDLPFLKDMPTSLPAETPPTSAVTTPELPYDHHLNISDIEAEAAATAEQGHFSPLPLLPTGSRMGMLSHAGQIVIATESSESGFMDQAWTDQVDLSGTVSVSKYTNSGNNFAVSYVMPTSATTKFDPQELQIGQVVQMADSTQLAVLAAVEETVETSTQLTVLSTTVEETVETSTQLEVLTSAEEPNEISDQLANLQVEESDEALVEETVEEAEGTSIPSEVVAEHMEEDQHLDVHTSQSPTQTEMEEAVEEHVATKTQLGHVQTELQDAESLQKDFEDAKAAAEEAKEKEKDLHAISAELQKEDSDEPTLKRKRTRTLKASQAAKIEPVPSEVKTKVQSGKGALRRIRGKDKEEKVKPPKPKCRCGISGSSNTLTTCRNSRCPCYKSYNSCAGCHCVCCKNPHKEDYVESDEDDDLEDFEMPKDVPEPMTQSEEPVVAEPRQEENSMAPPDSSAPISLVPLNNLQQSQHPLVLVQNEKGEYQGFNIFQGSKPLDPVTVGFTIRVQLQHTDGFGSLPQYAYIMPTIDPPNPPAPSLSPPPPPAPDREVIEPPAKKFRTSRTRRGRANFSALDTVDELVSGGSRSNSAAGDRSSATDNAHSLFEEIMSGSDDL
The series can be described thus: EMSA.

The next series addresses T2, MSL2-ΔRING (Drosophila melanogaster, UniProt P50534 1-40+86-773, internal_change).
T2 sequence: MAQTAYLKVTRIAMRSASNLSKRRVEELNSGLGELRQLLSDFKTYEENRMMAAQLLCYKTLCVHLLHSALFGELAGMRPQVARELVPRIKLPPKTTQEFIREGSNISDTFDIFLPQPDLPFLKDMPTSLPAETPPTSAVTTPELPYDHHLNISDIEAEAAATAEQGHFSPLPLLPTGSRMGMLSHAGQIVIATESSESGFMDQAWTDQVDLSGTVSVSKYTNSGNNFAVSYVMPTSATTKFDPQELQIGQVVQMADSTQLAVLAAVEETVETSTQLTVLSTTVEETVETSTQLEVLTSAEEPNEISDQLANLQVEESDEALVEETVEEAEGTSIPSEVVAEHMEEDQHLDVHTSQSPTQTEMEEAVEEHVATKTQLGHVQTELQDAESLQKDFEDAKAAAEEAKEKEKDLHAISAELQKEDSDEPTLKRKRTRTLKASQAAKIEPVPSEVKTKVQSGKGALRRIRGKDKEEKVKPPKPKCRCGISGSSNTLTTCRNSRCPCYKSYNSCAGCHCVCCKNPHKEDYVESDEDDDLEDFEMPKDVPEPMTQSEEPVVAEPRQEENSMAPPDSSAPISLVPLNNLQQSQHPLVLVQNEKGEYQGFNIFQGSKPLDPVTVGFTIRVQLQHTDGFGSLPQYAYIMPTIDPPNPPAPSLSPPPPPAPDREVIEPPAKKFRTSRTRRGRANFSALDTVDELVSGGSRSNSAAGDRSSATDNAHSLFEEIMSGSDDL
The series can be described thus: EMSA.

Another series deals with T3, MSL2-ΔCXC (Drosophila melanogaster, UniProt P50534 1-519+572-773, internal_change).
T3 sequence: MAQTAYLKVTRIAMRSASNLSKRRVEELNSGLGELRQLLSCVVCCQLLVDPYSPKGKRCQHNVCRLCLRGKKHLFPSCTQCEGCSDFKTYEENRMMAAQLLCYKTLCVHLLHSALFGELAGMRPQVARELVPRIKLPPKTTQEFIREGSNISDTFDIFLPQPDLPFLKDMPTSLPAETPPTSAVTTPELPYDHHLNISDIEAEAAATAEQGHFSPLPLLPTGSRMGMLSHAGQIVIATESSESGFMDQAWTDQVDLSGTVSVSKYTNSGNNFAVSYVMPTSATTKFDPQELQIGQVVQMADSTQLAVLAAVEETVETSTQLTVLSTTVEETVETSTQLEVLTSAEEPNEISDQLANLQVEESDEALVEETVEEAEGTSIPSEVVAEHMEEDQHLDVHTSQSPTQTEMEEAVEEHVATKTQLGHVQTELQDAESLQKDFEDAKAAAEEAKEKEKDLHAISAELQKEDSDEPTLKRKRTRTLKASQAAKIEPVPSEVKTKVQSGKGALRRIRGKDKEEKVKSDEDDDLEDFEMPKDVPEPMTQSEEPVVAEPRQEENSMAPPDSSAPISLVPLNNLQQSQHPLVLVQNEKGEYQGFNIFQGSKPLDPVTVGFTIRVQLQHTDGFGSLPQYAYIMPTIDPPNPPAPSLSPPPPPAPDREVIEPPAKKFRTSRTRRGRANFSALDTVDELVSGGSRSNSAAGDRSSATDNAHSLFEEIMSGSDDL
The series can be described thus: EMSA.

The target in series [3] is T1, MSL2. The series can be described thus: competition.

“UGCGGCCAUCUCUUUCGUUUUGAUGUUUCUACGCCAUGUG / CACAUGGCGUAGAAACAUCAAAACGAAAGAGAUGGCCGCA [DBF12-L15 dsRNA 40 bp]”: the Kd in series [1] is 37 nM.

B1: DBF12-L15 dsRNA 40 bp (dsRNA)
RNA 1: UGCGGCCAUCUCUUUCGUUUUGAUGUUUCUACGCCAUGUG
RNA 2: CACAUGGCGUAGAAACAUCAAAACGAAAGAGAUGGCCGCA
With B1, the Kd came to 21 ± 4 nM with MSL2 [2], 23 ± 5 nM with MSL2-ΔRING and 29 ± 12 nM with MSL2-ΔCXC. Besides, the half-inhibitory concentration (IC50) with MSL2 [3] worked out at 36 ± 8 nM.

As a reminder, the Kd is the constant that tells how readily two partners part at equilibrium. Read a high Kd as a looser complex. What is called IC50 is the concentration needed to halve the response being measured. A lower IC50 goes with higher potency.

The values above are taken from publication PMC2879509.
